Laboratory results published in article PMC4072508, “Genome-Wide Prediction and Validation of Peptides That Bind Human Prosurvival Bcl-2 Proteins” (PLoS Computational Biology, 2014).

T1: Bfl-1, Q16548
T1 chain: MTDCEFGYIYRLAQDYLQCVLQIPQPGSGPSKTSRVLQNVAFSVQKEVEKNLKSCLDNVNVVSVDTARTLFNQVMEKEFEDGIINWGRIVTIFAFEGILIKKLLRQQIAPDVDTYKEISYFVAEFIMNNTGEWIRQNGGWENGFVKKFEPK

T2: Bcl-w, Q92843
T2 chain: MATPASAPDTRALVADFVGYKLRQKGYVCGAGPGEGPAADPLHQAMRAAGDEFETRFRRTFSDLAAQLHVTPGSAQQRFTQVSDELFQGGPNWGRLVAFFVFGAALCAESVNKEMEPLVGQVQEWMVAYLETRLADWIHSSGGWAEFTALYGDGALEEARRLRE

T3: Mcl-1, Q07820
T3 chain: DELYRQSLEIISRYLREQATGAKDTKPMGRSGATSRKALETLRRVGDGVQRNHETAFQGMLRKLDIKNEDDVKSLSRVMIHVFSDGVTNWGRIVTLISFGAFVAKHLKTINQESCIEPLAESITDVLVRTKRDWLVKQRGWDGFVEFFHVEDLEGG

B1: BCL2L11 (peptide)
chain: MRPEIWIAQEDRRIGDEFNAYYARRV
B2: TFDP1 (peptide)
chain: NRKGEKNGKGLRHFSMKVCEKVQRKG
B3: HNRPLL (peptide)
chain: KFMKTIPGTALVEMGDEYAVERAVTH
B4: DCST2 (peptide)
chain: FSVDLNASRSLSQVAMDLHEAVSMKL
B5: CCNA1 (peptide)
chain: EGMRTILVDWLVEVGEEYKLRAETLY
B6: INCA1 (peptide)
chain: DQEEACASRQLHSLASFSTVTARRNP
B7: ILF3 (peptide)
chain: LCKEKPTTALLDKVADNLAIQLAAVT
B8: EXOC5 (peptide)
chain: IKEAADIIQKLHLIAQELPFDRFSEV
B9: TUBGCP6 (peptide)
chain: KEVEDCVPVFLKHIAHDIYVCGKTIN
B10: MTA1 (peptide)
chain: RQAFYLHTTKLTRIARRLCREILRPW
B11: MTA2 (peptide)
chain: ASEAMLFEEALEKYGKDFNDIRQDFL
B12: MCF2 (peptide)
chain: ALTVKEMAQMLQSFGTELAETELPDD
B13: MTA2 (peptide)
chain: LFRRRDISSSLNSLADSNAREFEEES
B14: USP36 (peptide)
chain: HRTSNVLTLSLKRFANFSGGKITKDV
B15: FES (peptide)
chain: AIPRAEVAELLVHSGDFLVRESQGKQ
B16: NLRP1 (peptide)
chain: LKELDLSGNSLSHSAVKSLCKTLRRP
B17: KIAA0430 (peptide)
chain: NKDGKSVSNRLRRLSDNCGGKVLSIT
B18: BAK1 (peptide)
chain: SSTMGQVGRQLAIIGDDINRRYDSEF
B19: CC2D1B (peptide)
chain: RAGELDRARELMRIGKRFGAVLEALE
B20: MTA3 (peptide)
chain: ASEASLFEEALEKYGKDFNDIRQDFL
B21: OTOF (peptide)
chain: DFMGRTFAKPLVKMADEAYCPPRFPP
B22: MTA1 (peptide)
chain: ASEANLFEEALEKYGKDFTDIQQDFL

Tests used:
Assay in all cases: peptide SPOT array, c-Myc-tagged receptor at 1 uM or 100 nM, anti-c-Myc-Cy3
[1] = target: Bcl-2, P10415
Chain of Bcl-2, P10415 (P10415 1-217): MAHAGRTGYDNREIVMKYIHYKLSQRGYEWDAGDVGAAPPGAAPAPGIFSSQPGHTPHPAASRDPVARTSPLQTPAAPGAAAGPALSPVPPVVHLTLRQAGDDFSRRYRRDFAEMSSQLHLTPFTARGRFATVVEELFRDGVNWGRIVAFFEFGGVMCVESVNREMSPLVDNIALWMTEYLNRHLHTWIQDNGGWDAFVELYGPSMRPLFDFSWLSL

[2] = target: T1, Bfl-1, Q16548
[3] = target: T2, Bcl-w, Q92843
[4] = target: Bcl-xL, Q07817
Chain of Bcl-xL, Q07817 (Q07817 1-209): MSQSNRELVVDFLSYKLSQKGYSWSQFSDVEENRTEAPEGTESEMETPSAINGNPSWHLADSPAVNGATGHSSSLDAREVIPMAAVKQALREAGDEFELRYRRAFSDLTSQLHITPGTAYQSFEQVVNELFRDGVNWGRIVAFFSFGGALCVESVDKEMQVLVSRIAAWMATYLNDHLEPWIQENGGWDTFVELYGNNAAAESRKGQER

[5] = target: T3, Mcl-1, Q07820

| Binder | SPOT signal as a fraction of Bim BH3's signal on the same receptor and array [1] | SPOT signal as a fraction of Bim BH3's signal on the same receptor and array [2] | SPOT signal as a fraction of Bim BH3's signal on the same receptor and array [3] | SPOT signal as a fraction of Bim BH3's signal on the same receptor and array [4] | SPOT signal as a fraction of Bim BH3's signal on the same receptor and array [5] |
| --- | --- | --- | --- | --- | --- |
| B1 | 0.05 | 0.05 | 0.06 | 0.09 | 0.05 |
| B2 | 0.18 | 0.52 | 0.91 | 0.54 | 0.3 |
| B3 | 0.01 | 0.02 | 0.02 | 0.04 | 0.02 |
| B4 | 0.01 | 0.08 | 0.03 | 0.03 | 0.06 |
| B5 | 0.01 | 0.02 | 0.02 | 0.05 | 0.05 |
| B6 | 0.08 | 0.35 | 0.2 | 0.12 | 0.23 |
| B7 | 0.01 | 0.02 | 0.02 | 0.03 | 0.02 |
| B8 | 0.01 | 0.03 | 0.21 | 0.11 | 0.09 |
| B9 | 0.01 | 0.03 | 0.02 | 0.04 | 0.02 |
| B10 | 0.23 | 0.72 | 0.89 | 0.75 | 0.41 |
| B11 | 0.01 | 0.01 | 0.02 | 0.03 | 0.03 |
| B12 | 0.01 | 0.01 | 0.02 | 0.03 | 0.03 |
| B13 | 0.02 | 0.05 | 0.04 | 0.08 | 0.04 |
| B14 | 0.2 | 0.48 | 0.65 | 0.55 | 0.29 |
| B15 | 0.01 | 0.02 | 0.02 | 0.03 | 0.03 |
| B16 | 0.09 | 0.42 | 0.41 | 0.4 | 0.13 |
| B17 | 0.13 | 0.31 | 0.61 | 0.56 | 0.21 |
| B18 | 0.27 | 0.4 | 0.72 | 0.4 | 0.84 |
| B19 | 0.03 | 0.16 | 0.13 | 0.16 | 0.06 |
| B20 | 0.01 | 0.01 | 0.02 | 0.02 | 0.02 |
| B21 | 0.06 | 0.1 | 0.14 | 0.26 | 0.1 |
| B22 | 0.01 | 0.01 | 0.02 | 0.03 | 0.03 |
